Results reported in publication PMC7948739 (The Journal of Biological Chemistry, 2020).

Key:
[1] = molecular target: the molecule itself; test: AUC; sedimentation velocity, DEC-205 ECD 0.2 mg ml^-1, TBS pH 8.0, 150 mM NaCl, 20 °C, 37,000 RPM
[2] = molecular target: the molecule itself; test: SEC-MALS; DEC-205 ECD, 50 ul at 1 mg ml^-1, Superdex 200 5/150, TBS (10 mM Tris-HCl pH 8.0, 150 mM NaCl)
[3] = molecular target: the molecule itself; test: AUC; sedimentation velocity, DEC-205 ECD 0.2 mg ml^-1, BIS-TRIS buffer pH 6.0, 150 mM NaCl, 20 °C, 37,000 RPM

B1: soluble DEC-205 ectodomain (ECD), residues 1-1664 (domain or fragment, human, UniProt O60449-1 28-1664, looked up)
chain: SGRAANDPFTIVHGNTGKCIKPVYGWIVADDCDETEDKLWKWVSQHRLFHLHSQKCLGLDITKSVNELRMFSCDSSAMLWWKCEHHSLYGAARYRLALKDGHGTAISNASDVWKKGGSEESLCDQPYHEIYTRDGNSYGRPCEFPFLIDGTWHHDCILDEDHSGPWCATTLNYEYDRKWGICLKPENGCEDNWEKNEQFGSCYQFNTQTALSWKEAYVSCQNQGADLLSINSAAELTYLKEKEGIAKIFWIGLNQLYSARGWEWSDHKPLNFLNWDPDRPSAPTIGGSSCARMDAESGLWQSFSCEAQLPYVCRKPLNNTVELTDVWTYSDTRCDAGWLPNNGFCYLLVNESNSWDKAHAKCKAFSSDLISIHSLADVEVVVTKLHNEDIKEEVWIGLKNINIPTLFQWSDGTEVTLTYWDENEPNVPYNKTPNCVSYLGELGQWKVQSCEEKLKYVCKRKGEKLNDASSDKMCPPDEGWKRHGETCYKIYEDEVPFGTNCNLTITSRFEQEYLNDLMKKYDKSLRKYFWTGLRDVDSCGEYNWATVGGRRRAVTFSNWNFLEPASPGGCVAMSTGKSVGKWEVKDCRSFKALSICKKMSGPLGPEEASPKPDDPCPEGWQSFPASLSCYKVFHAERIVRKRNWEEAERFCQALGAHLSSFSHVDEIKEFLHFLTDQFSGQHWLWIGLNKRSPDLQGSWQWSDRTPVSTIIMPNEFQQDYDIRDCAAVKVFHRPWRRGWHFYDDREFIYLRPFACDTKLEWVCQIPKGRTPKTPDWYNPDRAGIHGPPLIIEGSEYWFVADLHLNYEEAVLYCASNHSFLATITSFVGLKAIKNKIANISGDGQKWWIRISEWPIDDHFTYSRYPWHRFPVTFGEECLYMSAKTWLIDLGKPTDCSTKLPFICEKYNVSSLEKYSPDSAAKVQCSEQWIPFQNKCFLKIKPVSLTFSQASDTCHSYGGTLPSVLSQIEQDFITSLLPDMEATLWIGLRWTAYEKINKWTDNRELTYSNFHPLLVSGRLRIPENFFEEESRYHCALILNLQKSPFTGTWNFTSCSERHFVSLCQKYSEVKSRQTLQNASETVKYLNNLYKIIPKTLTWHSAKRECLKSNMQLVSITDPYQQAFLSVQALLHNSSLWIGLFSQDDELNFGWSDGKRLHFSRWAETNGQLEDCVVLDTDGFWKTVDCNDNQPGAICYYSGNETEKEVKPVDSVKCPSPVLNTPWIPFQNCCYNFIITKNRHMATTQDEVHTKCQKLNPKSHILSIRDEKENNFVLEQLLYFNYMASWVMLGITYRNKSLMWFDKTPLSYTHWRAGRPTIKNEKFLAGLSTDGFWDIQTFKVIEEAVYFHQHSILACKIEMVDYKEEYNTTLPQFMPYEDGIYSVIQKKVTWYEALNMCSQSGGHLASVHNQNGQLFLEDIVKRDGFPLWVGLSSHDGSESSFEWSDGSTFDYIPWKGQTSPGNCVLLDPKGTWKHEKCNSVKDGAICYKPTKSKKLSRLTYSSRCPAAKENGSRWIQYKGHCYKSDQALHSFSEAKKLCSKHDHSATIVSIKDEDENKFVSRLMRENNNITMRVWLGLSQHSVDQSWSWLDGSEVTFVKWENKSKSGVGRCSMLIASNETWKKVECEHGFGRVVCKVPLG
notes: signal peptide in the construct; Monomer at pH 6.0, tetramer at pH 8.0; In both reconstructions only R30 to E1383 (CysR to CTLD8) could be built; CTLD9 and CTLD10 are invisible; also called CD205; source: HEK293S, transient transfection, secreted, purified (FLAG resin, size exclusion)
[1]
  stoichiometry N: 6
[2]
  stoichiometry N: 4
[3]
  stoichiometry N: 2
